From patent publication US20140220017A1
pKd: −log10 of the molar value.

Columns and labels:
human IgG Fc (human) [1] = assay: QCM; pH 6
human IgG (human) [2] = assay: QCM; pH 6
mouse IgG Fc (mouse) [3] = assay: QCM; pH 6
mouse IgG (mouse) [4] = assay: QCM; pH 6
human IgG Fc (human) [5] = assay: QCM; pH 7.4
human IgG (human) [6] = assay: QCM; pH 7.4
mouse IgG Fc (mouse) [7] = assay: QCM; pH 7.4
mouse IgG (mouse) [8] = assay: QCM; pH 7.4

| Substance | pKd (human IgG Fc (human) [1]) | pKd (human IgG (human) [2]) | pKd (mouse IgG Fc (mouse) [3]) | pKd (mouse IgG (mouse) [4]) | pKd (human IgG Fc (human) [5]) | pKd (human IgG (human) [6]) | pKd (mouse IgG Fc (mouse) [7]) | pKd (mouse IgG (mouse) [8]) |
| --- | --- | --- | --- | --- | --- | --- | --- | --- |
| SpAD (from UniProt P38507 93-153) | 7.52 | 6.83 | 6.01 | 6.11 | 7.85 | 7.66 | 7.27 | 7.25 |
| SpAB (from UniProt P38507 212-269) |  | 6.46 |  | 4.82 |  | 8.05 |  | 6.42 |
